Data published in the supplement of paper PMC9233669.
This sample holds only a part of the variants without activity.

Assays:
biotinyl-Phe-oxazolone = experiment: self-aminoacylation, catalytic enhancement (BFO) (fold over background); higher = more active; k-Seq, kA / k0A0; sequences stand for … in GGGAAUGGAUCCACAUCUACGAAUUC…UUCACUGCAGACUUGACGAAGCUG
Procedure, shortened: (§1)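 Catalytic enhancement equals the median kA over the uncatalyzed rate, the latter read from the low-activity peak of a bimodal Gaussian fit. Values of kA came from fitting each sequence's fraction reacted to a pseudo-first-order model, with 1000 bootstraps. Reacted RNA was captured with streptavidin and quantified by triplicate qPCR and Illumina sequencing after 90 minutes at room temperature with 2–1250 μM biotinyl-aminoacyl-oxazolone and 0.43 μM mutagenized RNA pools bearing a 21-nt variable region.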

biotinyl-Ile-oxazolone = experiment: self-aminoacylation, catalytic enhancement (BIO) (fold over background); higher = more active; k-Seq, kA / k0A0; sequences stand for … in GGGAAUGGAUCCACAUCUACGAAUUC…UUCACUGCAGACUUGACGAAGCUG
Procedure, shortened: as §1

biotinyl-Met-oxazolone = experiment: self-aminoacylation, catalytic enhancement (BMO) (fold over background); higher = more active; k-Seq, kA / k0A0; sequences stand for … in GGGAAUGGAUCCACAUCUACGAAUUC…UUCACUGCAGACUUGACGAAGCUG
Procedure, shortened: as §1

biotinyl-Val-oxazolone = experiment: self-aminoacylation, catalytic enhancement (BVO) (fold over background); higher = more active; k-Seq, kA / k0A0; sequences stand for … in GGGAAUGGAUCCACAUCUACGAAUUC…UUCACUGCAGACUUGACGAAGCUG
Procedure, shortened: as §1

biotinyl-Leu-oxazolone = experiment: self-aminoacylation, catalytic enhancement (BLO) (fold over background); higher = more active; k-Seq, kA / k0A0; sequences stand for … in GGGAAUGGAUCCACAUCUACGAAUUC…UUCACUGCAGACUUGACGAAGCUG
Procedure, shortened: as §1

biotinyl-Trp-oxazolone = experiment: self-aminoacylation, catalytic enhancement (BWO) (fold over background); higher = more active; k-Seq, kA / k0A0; sequences stand for … in GGGAAUGGAUCCACAUCUACGAAUUC…UUCACUGCAGACUUGACGAAGCUG
Procedure, shortened: as §1

Row | Sequence | self-aminoacylation (biotinyl-Phe-oxazolone) | self-aminoacylation (biotinyl-Ile-oxazolone) | self-aminoacylation (biotinyl-Met-oxazolone) | self-aminoacylation (biotinyl-Val-oxazolone) | self-aminoacylation (biotinyl-Leu-oxazolone) | self-aminoacylation (biotinyl-Trp-oxazolone)
1 | CUACUUCAUACAAUCGUUCUG [Fam1A.1 aminoacylation ribozyme variant] | 0.733 | 0.535 | 0.476 | 0.655 | 0.477 | 0.371
2 | CUACUUCAUACAUUCGGUCUG [Fam1A.1 aminoacylation ribozyme variant] | 1.05 | 0.955 | 0.894 | 0.965 | 1.04 | 0.96
3 | CUACUUCCAACAAUCCGUCUG [Fam1A.1 aminoacylation ribozyme variant] | 0.668 | 0.794 | 0.771 | 0.886 | 0.999 | 0.524
4 | CUACUUCCAACAAUCGAUCUG [Fam1A.1 aminoacylation ribozyme variant] | 0.773 | 0.747 | 0.494 | 0.549 | 0.664 | 0.608
5 | CUACUUCCAACAAUCGGUCUG [Fam1A.1 aminoacylation ribozyme variant] | 1.11 | 0.766 | 0.722 | 0.768 | 0.702 | 0.831
6 | CUACUUCCAACACUCGGUCUG [Fam1A.1 aminoacylation ribozyme variant] | 0.522 | 0.978 | 1.03 | 0.958 | 1.01 | 0.796
7 | CUACUUCGAACAAUCCGUCUG [Fam1A.1 aminoacylation ribozyme variant] | 0.35 | 0.636 | 0.738 | 0.745 | 0.587 | 0.588
8 | CUACUUCGAACAAUCGGACUG [Fam1A.1 aminoacylation ribozyme variant] | 0.493 | 0.679 | 0.593 | 0.502 | 0.65 | 0.492
9 | CUACUUCGAACAAUCGGUCCG [Fam1A.1 aminoacylation ribozyme variant] | 2.05 | 0.879 | 1.09 | 0.738 | 0.865 | 0.959
10 | CUACUUCGAACAAUCGGUCGG [Fam1A.1 aminoacylation ribozyme variant] | 2.37 | 1.02 | 1.34 | 0.922 | 1.41 | 0.974
11 | CUACUUCGAACACUCGGUCUG [Fam1A.1 aminoacylation ribozyme variant] | 3.18 | 1.02 | 1.04 | 1.18 | 1.32 | 1
12 | CUACUUCGAACAUUCGGUCUG [Fam1A.1 aminoacylation ribozyme variant] | 0.576 | 1.29 | 1.05 | 1.32 | 1.18 | 0.84
13 | CUACUUCGAAGAAUCGGUCUG [Fam1A.1 aminoacylation ribozyme variant] | 0.287 | 0.875 | 0.933 | 0.839 | 0.757 | 0.567
14 | CUACUUCGAGCAAUCGGUCUG [Fam1A.1 aminoacylation ribozyme variant] | 0.728 | 0.951 | 1.15 | 1.01 | 0.815 | 0.703
15 | CUACUUCGCACAAUCGGUCUG [Fam1A.1 aminoacylation ribozyme variant] | 0.439 | 0.867 | 0.94 | 0.961 | 0.999 | 0.591
16 | CUACUUCUAACAAUCGAUCUG [Fam1A.1 aminoacylation ribozyme variant] | 0.698 | 0.674 | 0.522 | 0.67 | 0.509 | 0.416
17 | CUACUUCUAACAAUCGGCCUG [Fam1A.1 aminoacylation ribozyme variant] | 1.01 | 1.09 | 0.997 | 1.2 | 1.31 | 1.05
18 | CUACUUCUAACAAUCGGUCUC [Fam1A.1 aminoacylation ribozyme variant] | 0.799 | 0.686 | 0.634 | 0.664 | 0.572 | 0.571
19 | CUACUUCUAACAAUCGGUCUU [Fam1A.1 aminoacylation ribozyme variant] | 0.801 | 0.748 | 0.701 | 0.871 | 0.753 | 0.465
20 | CUACUUCUAACGAUCGGUCUG [Fam1A.1 aminoacylation ribozyme variant] | 0.785 | 0.675 | 0.747 | 0.688 | 0.622 | 0.505
21 | CUACUUCUAAUAAUCGGUCUG [Fam1A.1 aminoacylation ribozyme variant] | 1.02 | 0.776 | 0.699 | 0.792 | 0.63 | 0.774
22 | CUACUUGAAACAACCGGUCUG [Fam1A.1 aminoacylation ribozyme variant] | 0.529 | 1.07 | 1.18 | 1.01 | 0.805 | 1.24
23 | CUACUUGAAACAAUCCGUCUG [Fam1A.1 aminoacylation ribozyme variant] | 0.462 | 0.813 | 1.03 | 0.836 | 0.759 | 1.44
24 | CUACUUGAAACAAUCUGUCUG [Fam1A.1 aminoacylation ribozyme variant] | 0.472 | 0.655 | 0.747 | 0.657 | 0.636 | 0.496
25 | CUACUUGAAUCAAUCGGUCUG [Fam1A.1 aminoacylation ribozyme variant] | 0.466 | 0.857 | 0.811 | 0.782 | 0.705 | 0.582
26 | CUACUUGGAACAAUCGGUCUG [Fam1A.1 aminoacylation ribozyme variant] | 0.848 | 0.831 | 0.904 | 0.833 | 0.788 | 0.642

Row | Sequence | self-aminoacylation (biotinyl-Phe-oxazolone) | self-aminoacylation (biotinyl-Ile-oxazolone) | self-aminoacylation (biotinyl-Met-oxazolone) | self-aminoacylation (biotinyl-Val-oxazolone) | self-aminoacylation (biotinyl-Leu-oxazolone) | self-aminoacylation (biotinyl-Trp-oxazolone)
27 | CUACUUUAAACAACCGGUCUG [Fam1A.1 aminoacylation ribozyme variant] | 0.725 | 0.909 | 0.996 | 0.973 | 0.978 | 1.07
28 | CUACUUUAAACAAUAGGUCUG [Fam1A.1 aminoacylation ribozyme variant] | 0.945 | 0.925 | 0.979 | 0.891 | 0.841 | 0.648
29 | CUACUUUAAACAGUCGGUCUG [Fam1A.1 aminoacylation ribozyme variant] | 0.582 | 0.837 | 0.765 | 0.845 | 0.812 | 0.651
30 | CUACUUUAAAUAAUCGGUCUG [Fam1A.1 aminoacylation ribozyme variant] | 1.03 | 0.923 | 0.869 | 0.902 | 0.82 | 0.885
31 | CUACUUUAUACAAUCGGUCUG [Fam1A.1 aminoacylation ribozyme variant] | 0.815 | 0.857 | 0.832 | 0.882 | 0.808 | 0.626
32 | CUAGUCCAAACAAUCGGUCUG [Fam1A.1 aminoacylation ribozyme variant] | 1.03 | 0.963 | 0.736 | 0.767 | 0.755 | 1.01
33 | CUAGUUCAAACAAGCGGUCUG [Fam1A.1 aminoacylation ribozyme variant] | 1.21 | 1.2 | 1.54 | 0.93 | 1.08 | 1.19
34 | CUAGUUCAAACAAUCGGCCUG [Fam1A.1 aminoacylation ribozyme variant] | 12.4 | 1.71 | 1.76 | 1.84 | 2.2 | 11.2
35 | CUAGUUCAAACAAUCGGUCCG [Fam1A.1 aminoacylation ribozyme variant] | 0.893 | 0.787 | 0.742 | 0.649 | 0.745 | 0.582
36 | CUAGUUCAAACAAUCGGUCUC [Fam1A.1 aminoacylation ribozyme variant] | 9.67 | 0.896 | 0.795 | 0.863 | 1.25 | 5.9
37 | CUAGUUCAAACAAUCGGUCUU [Fam1A.1 aminoacylation ribozyme variant] | 5.06 | 1.14 | 1.25 | 1.01 | 1.26 | 3.27
38 | CUAGUUCAAACAAUCGGUGUG [Fam1A.1 aminoacylation ribozyme variant] | 1.63 | 0.992 | 1.4 | 0.947 | 1.63 | 1.79
39 | CUAGUUCAAACAAUGGGUCUG [Fam1A.1 aminoacylation ribozyme variant] | 0.792 | 1.14 | 1.1 | 0.851 | 1.08 | 0.678
40 | CUAUUUCAAAAAAUCGGUCUG [Fam1A.1 aminoacylation ribozyme variant] | 2.31 | 1.13 | 1 | 0.85 | 1.18 | 1.73
41 | CUAUUUCAAACAACCGGUCUG [Fam1A.1 aminoacylation ribozyme variant] | 0.87 | 0.992 | 0.85 | 0.861 | 0.844 | 0.827
42 | CUAUUUCAAACAAUCGGACUG [Fam1A.1 aminoacylation ribozyme variant] | 1.93 | 0.976 | 0.82 | 0.733 | 0.803 | 1.12
43 | CUAUUUCAAACAAUGGGUCUG [Fam1A.1 aminoacylation ribozyme variant] | 0.641 | 0.924 | 0.836 | 0.81 | 0.863 | 0.802
44 | CUAUUUCAAACAAUUGGUCUG [Fam1A.1 aminoacylation ribozyme variant] | 0.87 | 1.01 | 0.994 | 0.873 | 0.929 | 0.736
45 | CUAUUUCAAACAGUCGGUCUG [Fam1A.1 aminoacylation ribozyme variant] | 0.588 | 0.827 | 0.859 | 0.8 | 0.843 | 0.682
46 | CUAUUUCGAACAAUCGGUCUG [Fam1A.1 aminoacylation ribozyme variant] | 0.664 | 0.814 | 0.799 | 0.793 | 0.697 | 0.67
47 | CUCCUUCAAACAAGCGGUCUG [Fam1A.1 aminoacylation ribozyme variant] | 0.811 | 0.98 | 0.734 | 0.83 | 0.774 | 1.25
48 | CUCCUUCAAACAAUCCGUCUG [Fam1A.1 aminoacylation ribozyme variant] | 1.24 | 1.03 | 0.657 | 0.949 | 0.659 | 1.25
49 | CUCCUUCAAACAUUCGGUCUG [Fam1A.1 aminoacylation ribozyme variant] | 3.15 | 1.24 | 1.31 | 1.32 | 1.05 | 1.66
50 | CUCCUUCAAACGAUCGGUCUG [Fam1A.1 aminoacylation ribozyme variant] | 1.86 | 0.833 | 0.833 | 0.925 | 1.21 | 2.2
51 | CUCCUUCAAACUAUCGGUCUG [Fam1A.1 aminoacylation ribozyme variant] | 1.92 | 1.14 | 1.17 | 1.15 | 0.895 | 1.5
